Data from paper PMC5929992 (Science signaling, 2016).
Non-standard residues stand in square brackets, D forms with d. No end group written: not given here. pY = N[C@@H](Cc1ccc(OP(=O)(O)O)cc1)C(=O)O

Columns and labels:
Assay in all cases: SPR
[1] = molecular target: Biotinylated CD28CD 25-mer peptide (residues 194 to 218) phosphorylated at Tyr207 (mouse)
[2] = molecular target: Lck SH2 domain (residues 122 to 226) (mouse, UniProt P06240 122-226)
[3] = molecular target: Murine full-length Lck (amino acid residues 6 to 509) (mouse, UniProt P06240 6-509, phosphotyrosine at 505)
Sequence of Murine full-length Lck (amino acid residues 6 to 509) (P06240 6-509): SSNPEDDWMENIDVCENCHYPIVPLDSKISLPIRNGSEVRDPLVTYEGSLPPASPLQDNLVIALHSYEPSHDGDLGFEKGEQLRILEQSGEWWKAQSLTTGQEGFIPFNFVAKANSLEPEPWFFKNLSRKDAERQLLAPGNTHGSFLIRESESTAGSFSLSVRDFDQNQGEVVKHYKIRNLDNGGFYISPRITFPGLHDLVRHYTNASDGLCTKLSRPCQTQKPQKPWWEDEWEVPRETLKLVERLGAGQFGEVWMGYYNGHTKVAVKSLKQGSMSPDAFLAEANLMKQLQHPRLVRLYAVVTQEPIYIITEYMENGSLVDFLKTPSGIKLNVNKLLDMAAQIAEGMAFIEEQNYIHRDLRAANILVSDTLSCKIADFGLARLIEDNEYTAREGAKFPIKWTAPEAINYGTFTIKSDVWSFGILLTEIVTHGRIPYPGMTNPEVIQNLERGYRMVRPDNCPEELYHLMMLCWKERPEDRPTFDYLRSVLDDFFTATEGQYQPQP

Sequence of Lck SH2 domain (residues 122 to 226) (P06240 122-226): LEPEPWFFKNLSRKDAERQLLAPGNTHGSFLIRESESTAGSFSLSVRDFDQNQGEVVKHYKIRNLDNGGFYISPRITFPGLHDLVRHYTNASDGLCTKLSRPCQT

Row | Kd [3] [µM] | Molecule | also measured
1 | – | Lck SH2 domain (residues 122 to 226) (from UniProt P06240 122-226) (domain or fragment) | Kd [1]: 10 µM
2 | – | PRRPGLTRKPYQA[pY]AAARDFAAYRP (peptide, UniProt P31041 194-218, looked up, also: biotinylated, position not given here) [Biotinylated CD28CD 25-mer peptide phosphorylated at Tyr207, double mutant P206A/P209A] | Kd [2]: 63.7 µM
3 | 0.199 | CNSRRNRLLQSDYMNMTPRRPGLTRKPYQPYAPARDFAAYRP (domain or fragment, mouse, disulfide between the added N-terminal cysteines of the two chains (oxidized with 1 mM GSSG)) [CD28WT cytoplasmic domain (CD28CD), disulfide-linked dimer] | –
4 | 0.187 | CNSRRNRLLQSDYMNMTPRRPGLTRKPYQAYAAARDFAAYRP (domain or fragment, mouse, disulfide between the added N-terminal cysteines of the two chains (oxidized with 1 mM GSSG)) [CD28 Mut5 cytoplasmic domain, disulfide-linked dimer] | –
